Reference: US7087420B1, “Microbial β-glucuronidase genes, gene products and uses thereof” (Cambia, priority 1997, dated 2006)

B1: C, D, E: E. coli GUS mutein, Cys 197 to Ser, Cys 253 to Glu, Cys 262 to Ser (protein, UniProt P05804 1-603, looked up, variant C197S C253E C262S)
Beta-glucuronidase: MLRPVETPTREIKKLDGLWAFSLDRENCGIDQRWWESALQESRAIAVPGSFNDQFADADIRNYAGNVWYQREVFIPKGWAGQRIVLRFDAVTHYGKVWVNNQEVMEHQGGYTPFEADVTPYVIAGKSVRITVCVNNELNWQTIPPGMVITDENGKKKQSYFHDFFNYAGIHRSVMLYTTPNTWVDDITVVTHVAQDSNHASVDWQVVANGDVSVELRDADQQVVATGQGTSGTLQVVNPHLWQPGEGYLYELEVTAKSQTESDIYPLRVGIRSVAVKGEQFLINHKPFYFTGFGRHEDADLRGKGFDNVLMVHDHALMDWIGANSYRTSHYPYAEEMLDWADEHGIVVIDETAAVGFNLSLGIGFEAGNKPKELYSEEAVNGETQQAHLQAIKELIARDKNHPSVVMWSIANEPDTRPQGAREYFAPLAEATRKLDPTRPITCVNVMFCDAHTDTISDLFDVLCLNRYYGWYVQSGDLETAEKVLEKELLAWQEKLHQPIIITEYGVDTLAGLHSMYTDMWSEEYQCAWLDMYHRVFDRVSAVVGEQVWNFADFATSQGILRVGGNKKGIFTRDRKPKSAAFLLQKRWTGMNFGEKPQQGGKQ
B2: B, C, D, E: E. coli GUS mutein, Cys 133, 197, 253, 262 changed to Ala, Ser, Glu, Ser (protein, UniProt P05804 1-603, looked up, variant C133A C197S C253E C262S)
Beta-glucuronidase: MLRPVETPTREIKKLDGLWAFSLDRENCGIDQRWWESALQESRAIAVPGSFNDQFADADIRNYAGNVWYQREVFIPKGWAGQRIVLRFDAVTHYGKVWVNNQEVMEHQGGYTPFEADVTPYVIAGKSVRITVAVNNELNWQTIPPGMVITDENGKKKQSYFHDFFNYAGIHRSVMLYTTPNTWVDDITVVTHVAQDSNHASVDWQVVANGDVSVELRDADQQVVATGQGTSGTLQVVNPHLWQPGEGYLYELEVTAKSQTESDIYPLRVGIRSVAVKGEQFLINHKPFYFTGFGRHEDADLRGKGFDNVLMVHDHALMDWIGANSYRTSHYPYAEEMLDWADEHGIVVIDETAAVGFNLSLGIGFEAGNKPKELYSEEAVNGETQQAHLQAIKELIARDKNHPSVVMWSIANEPDTRPQGAREYFAPLAEATRKLDPTRPITCVNVMFCDAHTDTISDLFDVLCLNRYYGWYVQSGDLETAEKVLEKELLAWQEKLHQPIIITEYGVDTLAGLHSMYTDMWSEEYQCAWLDMYHRVFDRVSAVVGEQVWNFADFATSQGILRVGGNKKGIFTRDRKPKSAAFLLQKRWTGMNFGEKPQQGGKQ
B3: A, B, C, D, E: E. coli GUS mutein, Cys 28, 133, 197, 253, 262 changed to Asn, Ala, Ser, Glu, Ser (protein, UniProt P05804 1-603, looked up, variant C28N C133A C197S C253E C262S)
Beta-glucuronidase: MLRPVETPTREIKKLDGLWAFSLDRENNGIDQRWWESALQESRAIAVPGSFNDQFADADIRNYAGNVWYQREVFIPKGWAGQRIVLRFDAVTHYGKVWVNNQEVMEHQGGYTPFEADVTPYVIAGKSVRITVAVNNELNWQTIPPGMVITDENGKKKQSYFHDFFNYAGIHRSVMLYTTPNTWVDDITVVTHVAQDSNHASVDWQVVANGDVSVELRDADQQVVATGQGTSGTLQVVNPHLWQPGEGYLYELEVTAKSQTESDIYPLRVGIRSVAVKGEQFLINHKPFYFTGFGRHEDADLRGKGFDNVLMVHDHALMDWIGANSYRTSHYPYAEEMLDWADEHGIVVIDETAAVGFNLSLGIGFEAGNKPKELYSEEAVNGETQQAHLQAIKELIARDKNHPSVVMWSIANEPDTRPQGAREYFAPLAEATRKLDPTRPITCVNVMFCDAHTDTISDLFDVLCLNRYYGWYVQSGDLETAEKVLEKELLAWQEKLHQPIIITEYGVDTLAGLHSMYTDMWSEEYQCAWLDMYHRVFDRVSAVVGEQVWNFADFATSQGILRVGGNKKGIFTRDRKPKSAAFLLQKRWTGMNFGEKPQQGGKQ
B4: A, B, C, D, E, I: E. coli GUS mutein, Cys 28, 133, 197, 253, 262, 527 changed to Asn, Ala, Ser, Glu, Ser, Lys (protein, UniProt P05804 1-603, looked up, variant C28N C133A C197S C253E C262S C527K)
Beta-glucuronidase: MLRPVETPTREIKKLDGLWAFSLDRENNGIDQRWWESALQESRAIAVPGSFNDQFADADIRNYAGNVWYQREVFIPKGWAGQRIVLRFDAVTHYGKVWVNNQEVMEHQGGYTPFEADVTPYVIAGKSVRITVAVNNELNWQTIPPGMVITDENGKKKQSYFHDFFNYAGIHRSVMLYTTPNTWVDDITVVTHVAQDSNHASVDWQVVANGDVSVELRDADQQVVATGQGTSGTLQVVNPHLWQPGEGYLYELEVTAKSQTESDIYPLRVGIRSVAVKGEQFLINHKPFYFTGFGRHEDADLRGKGFDNVLMVHDHALMDWIGANSYRTSHYPYAEEMLDWADEHGIVVIDETAAVGFNLSLGIGFEAGNKPKELYSEEAVNGETQQAHLQAIKELIARDKNHPSVVMWSIANEPDTRPQGAREYFAPLAEATRKLDPTRPITCVNVMFCDAHTDTISDLFDVLCLNRYYGWYVQSGDLETAEKVLEKELLAWQEKLHQPIIITEYGVDTLAGLHSMYTDMWSEEYQKAWLDMYHRVFDRVSAVVGEQVWNFADFATSQGILRVGGNKKGIFTRDRKPKSAAFLLQKRWTGMNFGEKPQQGGKQ
B5: A: E. coli GUS mutein, Cys 28 changed to Asn (protein, UniProt P05804 1-603, looked up, variant C28N)
Beta-glucuronidase: MLRPVETPTREIKKLDGLWAFSLDRENNGIDQRWWESALQESRAIAVPGSFNDQFADADIRNYAGNVWYQREVFIPKGWAGQRIVLRFDAVTHYGKVWVNNQEVMEHQGGYTPFEADVTPYVIAGKSVRITVCVNNELNWQTIPPGMVITDENGKKKQSYFHDFFNYAGIHRSVMLYTTPNTWVDDITVVTHVAQDCNHASVDWQVVANGDVSVELRDADQQVVATGQGTSGTLQVVNPHLWQPGEGYLYELCVTAKSQTECDIYPLRVGIRSVAVKGEQFLINHKPFYFTGFGRHEDADLRGKGFDNVLMVHDHALMDWIGANSYRTSHYPYAEEMLDWADEHGIVVIDETAAVGFNLSLGIGFEAGNKPKELYSEEAVNGETQQAHLQAIKELIARDKNHPSVVMWSIANEPDTRPQGAREYFAPLAEATRKLDPTRPITCVNVMFCDAHTDTISDLFDVLCLNRYYGWYVQSGDLETAEKVLEKELLAWQEKLHQPIIITEYGVDTLAGLHSMYTDMWSEEYQCAWLDMYHRVFDRVSAVVGEQVWNFADFATSQGILRVGGNKKGIFTRDRKPKSAAFLLQKRWTGMNFGEKPQQGGKQ
B6: B: E. coli GUS mutein, Cys 133 changed to Ala (protein, UniProt P05804 1-603, looked up, variant C133A)
Beta-glucuronidase: MLRPVETPTREIKKLDGLWAFSLDRENCGIDQRWWESALQESRAIAVPGSFNDQFADADIRNYAGNVWYQREVFIPKGWAGQRIVLRFDAVTHYGKVWVNNQEVMEHQGGYTPFEADVTPYVIAGKSVRITVAVNNELNWQTIPPGMVITDENGKKKQSYFHDFFNYAGIHRSVMLYTTPNTWVDDITVVTHVAQDCNHASVDWQVVANGDVSVELRDADQQVVATGQGTSGTLQVVNPHLWQPGEGYLYELCVTAKSQTECDIYPLRVGIRSVAVKGEQFLINHKPFYFTGFGRHEDADLRGKGFDNVLMVHDHALMDWIGANSYRTSHYPYAEEMLDWADEHGIVVIDETAAVGFNLSLGIGFEAGNKPKELYSEEAVNGETQQAHLQAIKELIARDKNHPSVVMWSIANEPDTRPQGAREYFAPLAEATRKLDPTRPITCVNVMFCDAHTDTISDLFDVLCLNRYYGWYVQSGDLETAEKVLEKELLAWQEKLHQPIIITEYGVDTLAGLHSMYTDMWSEEYQCAWLDMYHRVFDRVSAVVGEQVWNFADFATSQGILRVGGNKKGIFTRDRKPKSAAFLLQKRWTGMNFGEKPQQGGKQ
B7: C: E. coli GUS mutein, Cys 197 changed to Ser (protein, UniProt P05804 1-603, looked up, variant C197S)
Beta-glucuronidase: MLRPVETPTREIKKLDGLWAFSLDRENCGIDQRWWESALQESRAIAVPGSFNDQFADADIRNYAGNVWYQREVFIPKGWAGQRIVLRFDAVTHYGKVWVNNQEVMEHQGGYTPFEADVTPYVIAGKSVRITVCVNNELNWQTIPPGMVITDENGKKKQSYFHDFFNYAGIHRSVMLYTTPNTWVDDITVVTHVAQDSNHASVDWQVVANGDVSVELRDADQQVVATGQGTSGTLQVVNPHLWQPGEGYLYELCVTAKSQTECDIYPLRVGIRSVAVKGEQFLINHKPFYFTGFGRHEDADLRGKGFDNVLMVHDHALMDWIGANSYRTSHYPYAEEMLDWADEHGIVVIDETAAVGFNLSLGIGFEAGNKPKELYSEEAVNGETQQAHLQAIKELIARDKNHPSVVMWSIANEPDTRPQGAREYFAPLAEATRKLDPTRPITCVNVMFCDAHTDTISDLFDVLCLNRYYGWYVQSGDLETAEKVLEKELLAWQEKLHQPIIITEYGVDTLAGLHSMYTDMWSEEYQCAWLDMYHRVFDRVSAVVGEQVWNFADFATSQGILRVGGNKKGIFTRDRKPKSAAFLLQKRWTGMNFGEKPQQGGKQ
B8: I: E. coli GUS mutein, Cys 527 changed to Lys (protein, UniProt P05804 1-603, looked up, variant C527K)
Beta-glucuronidase: MLRPVETPTREIKKLDGLWAFSLDRENCGIDQRWWESALQESRAIAVPGSFNDQFADADIRNYAGNVWYQREVFIPKGWAGQRIVLRFDAVTHYGKVWVNNQEVMEHQGGYTPFEADVTPYVIAGKSVRITVCVNNELNWQTIPPGMVITDENGKKKQSYFHDFFNYAGIHRSVMLYTTPNTWVDDITVVTHVAQDCNHASVDWQVVANGDVSVELRDADQQVVATGQGTSGTLQVVNPHLWQPGEGYLYELCVTAKSQTECDIYPLRVGIRSVAVKGEQFLINHKPFYFTGFGRHEDADLRGKGFDNVLMVHDHALMDWIGANSYRTSHYPYAEEMLDWADEHGIVVIDETAAVGFNLSLGIGFEAGNKPKELYSEEAVNGETQQAHLQAIKELIARDKNHPSVVMWSIANEPDTRPQGAREYFAPLAEATRKLDPTRPITCVNVMFCDAHTDTISDLFDVLCLNRYYGWYVQSGDLETAEKVLEKELLAWQEKLHQPIIITEYGVDTLAGLHSMYTDMWSEEYQKAWLDMYHRVFDRVSAVVGEQVWNFADFATSQGILRVGGNKKGIFTRDRKPKSAAFLLQKRWTGMNFGEKPQQGGKQ

The molecules below were run on KW1 (assay: X-GlcA staining of low-cysteine E. coli GUS muteins in KW1). Conditions: pBS backbone in KW1, staining with X-GlcA.
Assay type: cell-based
Description: Single and multiple Cys muteins are constructed by site-directed mutagenesis techniques. Eight of the nine cysteine residues in E. coli GUS are changed to the corresponding residue found in human GUS based on alignment of the two protein sequences. One of the E. coli GUS cysteine residues, amino acid 463, aligns with a cysteine residue in human GUS and was not altered. The corresponding amino acids between E. coli GUS and human GUS are shown below.
The mutein GUS genes are cloned into a pBS backbone. The mutations are confirmed by diagnostic restriction site changes and by DNA sequence analysis. Recombinant vectors are transfected into KW1 and GUS activity assayed by staining with X-GlcA (5-bromo-4-chloro-3-indolyl-β-D-glucuronide).
With B1 the GUS activity was “Yes”.
For B2, the GUS activity was “Yes”.
For B3, the GUS activity was “Yes”.
For B4, the GUS activity was “No”.
In the case of B5, the GUS activity is reported as “Yes”.
With B6 the GUS activity was “Yes”.
In the case of B7, the GUS activity is reported as “Yes”.
In the case of B8, the GUS activity is reported as “No”.
